Measurements as given in patent US20080300209, “GENE EXPRESSION AND PAIN” (ADYNXX, INC., published 2008).

B1: SEQ ID NO 40 double EGR1 site decoy (dsDNA)
DNA 1: GTTATGCGTGGGCGTAGATGCGGGGGCGTTATAG
DNA 2: CTATAACGCCCCCGCATCTACGCCCACGCATAAC
B2: SEQ ID NO 41 EGR1 consensus decoy (dsDNA)
DNA 1: GATGCGTGGGCGTAGG
DNA 2: CCTACGCCCACGCATC
B3: SEQ ID NO 42 fused EGR1 sites decoy (dsDNA)
DNA 1: GTATGCGTGGGCGGTGGGCGTAG
DNA 2: CTACGCCCACCGCCCACGCATAC

Experiments:
[1] = molecular target: T1, EGR1 (endogenous, HL60 cells) (Homo sapiens, UniProt P18146 P18146:1-543); assay: cell_activity; inhibition of CDK5R1 mRNA in HL60 cells 48 h after vitamin D3; figure legend states 443 nM
[2] = molecular target: T2, EGR1 (Homo sapiens, UniProt P18146 P18146:1-543); assay: competition; ELISA; self-competition vs 128 nM biotinylated SEQ 40 probe, 10 ug nuclear extract; settings: protein: extract; tags: endogenous in nuclear extract of TPA-stimulated K-562 cells (Activemotif); label: biotin (probe)
Method: (§1) FIG. 2. A. Relative affinity. Quantitative competition ELISA involving hEGR1 were performed using a constant concentration of biotinylated SEQ ID NO.: 40 (128 nM) as the probe and 10 μg of protein extract. The probe-protein mix was incubated with increasing concentrations of SEQ ID NO.: 40, SEQ ID NO.: 41 or SEQ ID NO.: 42 competitors. The inhibition of hEGR1 binding by the probe was measured for each competitor at various concentrations and the resulting inhibition curves were fitted to an exponential decay model. […] Mean±SEM are given as a percentage of the maximum hEGR1 binding obtained with the probe in absence of competitor; n=2-4. B. Relative specificity. The relative binding of EGR1 oligonucleotide decoy sequences to hSP1 and hWT1 transcription factors was measured using quantitative ELISA. Top graph: representative OD binding values of SEQ ID NO.: 40 (128 nM) to either hSP1 or hWT1 transcription factors, as compared to hEGR1 binding, was detected with transcription factor-specific antibodies in either the presence or absence of SEQ ID NO.: 42 competitor (512 nM). For comparison, SEQ ID NO.: 11 binding to hSP1 is shown. […]
(§2) The affinity and specificity of decoy sequences for their transcription factor targets was measured with colorimetric transcription factor ELISA (Enzyme linked immuno adsorbent) kits (Panomics, Calif., USA). […]

[3] = molecular target: T2, EGR1; assay: competition; ELISA vs 128 nM biotinylated SEQ 40 probe, 10 ug nuclear extract; settings: protein: extract; tags: endogenous in nuclear extract of TPA-stimulated K-562 cells (Activemotif)
Method: as §1, §2

[4] = molecular target: T1, EGR1 (endogenous, HL60 cells); assay: cell_activity; inhibition of CDK5R1 mRNA in HL60 cells 48 h after vitamin D3; figure legend states 502 nM
[5] = molecular target: T1, EGR1 (endogenous, HL60 cells); assay: cell_activity; inhibition of CDK5R1 mRNA in HL60 cells 48 h after vitamin D3; figure legend states 136 nM

T1 sequence (P18146 whole entry, one chain of several): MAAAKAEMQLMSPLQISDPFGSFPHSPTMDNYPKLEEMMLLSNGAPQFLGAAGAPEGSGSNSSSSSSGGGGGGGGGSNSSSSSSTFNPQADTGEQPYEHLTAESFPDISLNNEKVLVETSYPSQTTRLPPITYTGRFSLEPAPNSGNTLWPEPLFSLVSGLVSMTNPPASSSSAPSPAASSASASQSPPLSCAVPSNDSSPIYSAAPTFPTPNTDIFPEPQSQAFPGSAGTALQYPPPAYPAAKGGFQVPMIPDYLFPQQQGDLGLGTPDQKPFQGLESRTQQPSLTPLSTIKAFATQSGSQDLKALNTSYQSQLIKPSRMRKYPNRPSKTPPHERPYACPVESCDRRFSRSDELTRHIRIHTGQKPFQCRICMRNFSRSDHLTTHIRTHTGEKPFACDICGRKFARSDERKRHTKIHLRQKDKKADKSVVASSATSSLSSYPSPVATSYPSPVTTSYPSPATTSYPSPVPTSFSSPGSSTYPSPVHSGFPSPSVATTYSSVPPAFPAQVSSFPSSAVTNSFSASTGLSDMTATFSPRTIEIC
T2 sequence (P18146 whole entry, one chain of several): as above

| Binder | IC50 [1] [nM] | IC50 [2] [nM] | IC50 [3] [nM] | IC50 [4] [nM] | IC50 [5] [nM] |
| --- | --- | --- | --- | --- | --- |
| B1 | 544 | 215 | – | – | – |
| B2 | – | – | 250 | 529 | – |
| B3 | – | – | 99 | – | 150 |
